Test results published in paper PMC4337610.

Assays:
[1] = target: Hfq wild-type (Escherichia coli) (UniProt P0A6X3); experiment: X-ray crystallography; conditions: BLI: 25 mM Tris pH 7.5, 50 mM NaCl, 50 mM KCl, 1 mM MgCl2, 1 mM DTT, 0-500 nM Hfq, temperature not stated; EMSA: 1x structure buffer, 1 ug yeast RNA, 37 C …
[2] = target: Hfq wild-type (Escherichia coli) (UniProt P0A6X3); experiment: BLI; conditions: BLI: 25 mM Tris pH 7.5, 50 mM NaCl, 50 mM KCl, 1 mM MgCl2, 1 mM DTT, 0-500 nM Hfq, temperature not stated, EMSA: 1x structure buffer, 1 ug yeast RNA, 37 C …
Hfq66 [3] = experiment: BLI; conditions: 1 uM RydC; BLI: 25 mM Tris pH 7.5, 50 mM NaCl, 50 mM KCl, 1 mM MgCl2, 1 mM DTT, 0-500 nM Hfq, temperature not stated; EMSA: 1x structure buffer, 1 ug yeast RNA, 37 C …; scale: fold lower affinity than without RydC
[4] = target: Hfq wild-type (Escherichia coli) (UniProt P0A6X3); experiment: EMSA; conditions: BLI: 25 mM Tris pH 7.5, 50 mM NaCl, 50 mM KCl, 1 mM MgCl2, 1 mM DTT, 0-500 nM Hfq, temperature not stated; EMSA: 1x structure buffer, 1 ug yeast RNA, 37 C …
[5] = target: Hfq wild-type (Escherichia coli) (UniProt P0A6X3); experiment: competition; conditions: BLI: 25 mM Tris pH 7.5, 50 mM NaCl, 50 mM KCl, 1 mM MgCl2, 1 mM DTT, 0-500 nM Hfq, temperature not stated; EMSA: 1x structure buffer, 1 ug yeast RNA, 37 C …
Hfq66 [6] = target: Hfq66 (UniProt P0A6X3); experiment: BLI; conditions: BLI: 25 mM Tris pH 7.5, 50 mM NaCl, 50 mM KCl, 1 mM MgCl2, 1 mM DTT, 0-500 nM Hfq, temperature not stated; EMSA: 1x structure buffer, 1 ug yeast RNA, 37 C …
[7] = target: HfqRim R19A;P21A;Q33A;Q35A;T49A;R66A (UniProt P0A6X3); experiment: BLI; conditions: BLI: 25 mM Tris pH 7.5, 50 mM NaCl, 50 mM KCl, 1 mM MgCl2, 1 mM DTT, 0-500 nM Hfq, temperature not stated; EMSA: 1x structure buffer, 1 ug yeast RNA, 37 C …

“GGCUUCCGAUGUAGACCCGUCCUCCUUCGCCUGCGUCACGGGUCCUGGUUAGACGCAGGCGUUUUCUG [RydC (crystal)]” was tested. Which binding [1] did it give?
Its binding is “binds”.

How did the binding signal (fold lower affinity than without RydC) ([2]; 1 uM RydC) turn out when cfa1 was run?
Its binding signal (fold lower affinity than without RydC) is 5.

And the binding signal (Hfq66 [3])?
Its binding signal is 100.

Which results are given for “GGUUCCGAUGUAGACCCGUCCUCCUUCGCCUGCGUCACGGGUCCUGGUUAGACGCAGGCGUUUUCU [RydC (EMSA transcript)]”?
binding [4]: binds; binding [5]: binds

Which results are given for “GGUUGUUUAUAUUACGAUAAUUAUUAGGCAUUAACGGGAACCGGAGCGUUCCCGAUUCACCAUGGAUGGCCUUUUCGGCAAGGGCUCCUCCCUUCCUCUGUUCUACGUCGGAUAACUGGCUCACGGAAUUGUCCGUGGG [cfa1]”?
Kd [2]: binds; binding (Hfq66 [6]): binds; Kd [7]: binds
